Reference: US20030124508A1, “Method for testing the hormonal effect of substances” (priority 2001, published 2003)

Biological target: T1, androgen receptor (Homo sapiens, UniProt P10275)
T1 construct: expressed in transfected cells; host or cells: SH-SY5Y
T1 sequence (P10275 1-920): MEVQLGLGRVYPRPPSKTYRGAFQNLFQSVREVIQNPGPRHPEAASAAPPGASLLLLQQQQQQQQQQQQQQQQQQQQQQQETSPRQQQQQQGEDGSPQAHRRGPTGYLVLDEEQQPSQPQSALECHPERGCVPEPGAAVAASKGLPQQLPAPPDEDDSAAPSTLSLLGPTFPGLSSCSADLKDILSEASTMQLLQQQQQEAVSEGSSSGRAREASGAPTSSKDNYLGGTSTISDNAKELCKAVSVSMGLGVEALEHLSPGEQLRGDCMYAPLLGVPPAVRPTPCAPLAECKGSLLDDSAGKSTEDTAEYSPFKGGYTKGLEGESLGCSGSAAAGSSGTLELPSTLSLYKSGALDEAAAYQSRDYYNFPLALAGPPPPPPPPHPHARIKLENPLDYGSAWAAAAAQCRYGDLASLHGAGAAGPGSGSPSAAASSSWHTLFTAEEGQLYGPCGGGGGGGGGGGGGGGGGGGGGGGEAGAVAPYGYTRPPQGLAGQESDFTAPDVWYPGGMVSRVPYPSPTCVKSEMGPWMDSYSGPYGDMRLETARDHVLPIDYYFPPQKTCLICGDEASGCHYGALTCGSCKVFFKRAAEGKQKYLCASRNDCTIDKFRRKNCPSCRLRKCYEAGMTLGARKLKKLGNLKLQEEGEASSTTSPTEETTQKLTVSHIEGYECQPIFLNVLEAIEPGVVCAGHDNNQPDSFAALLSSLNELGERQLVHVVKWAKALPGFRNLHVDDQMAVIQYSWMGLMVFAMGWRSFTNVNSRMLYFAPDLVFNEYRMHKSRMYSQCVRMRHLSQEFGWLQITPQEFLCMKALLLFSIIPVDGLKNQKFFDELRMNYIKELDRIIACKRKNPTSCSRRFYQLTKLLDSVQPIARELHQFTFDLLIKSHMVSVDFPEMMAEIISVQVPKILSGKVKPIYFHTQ
Experiment: Co-activation of the androgen receptor signal (MMTV-luciferase reporter) in transfected SH-SY5Y cells
Type: cell-based
Conditions: SH-SY5Y cells transfected with 1 μg co-activator in CMX, MMTV-luciferase and pSG5AR; DHT for 24 hours; especially at low androgen concentrations of 10^−12-10^−10 M; vs CMX control plasmid
Protocol: The ARAP11-cDNA which codes for the ARAP11 fragment of amino acids 813-1,390, obtained by PCR, was cloned in the standard manner into the vector CMX and transfected with pSG5-AR and MMTV-luciferase in SH-SY5Y cells, also in the standard manner.
After 24 hours, the cells were treated with […] (DHT) as the androgen in the indicated concentrations. The transfected cells were harvested after another 24 hours, and the activity of the reporter gene luciferase was measured. In addition, the total quantity of cell protein was determined for the sake of normalization. One experiment and four measurements were conducted per transfection batch and substance concentration. The error range is given as the SD. The values of the corresponding controls without DHT were subtracted from all signals. The activity is expressed in relative units.

B1: ARAP11-cDNA: cDNA in vector CMX coding for amino acids 813-1,390 of ARAP11, co-activator for the human androgen receptor (protein)
chain: VIHALEKFTVYTLDIPVLFGVSTTSPEETCAQVIREAKRTAPSIVYVPHIHVWWEIVGPTLKATFTTLLQNIPSFAPVLLLATSDKPHSALPEEVQELFIRDYGEIFNVQLPDKEERTKFFEDLILKQAAKPPISKKKAVLQALEVLPVAPPPEPRSLTAEEVKRLEEQEEDTFRELRIFLRNVTHRLAIDKRFRVFTKPVDPDEVPDYVTVIKQPMDLSSVISKIDLHKYLTVKDYLRDIDLICSNALEYNPDRDPGDRLIRHRACALRDTAYAIIKEELDEDFEQLCEEIQESRKKRGCSSSKYAPSYYHVMPKQNSTLVGDKRSDPEQNEKLKTPSTPVACSTPAQLKRKIRKKSNWYLGTIKKRRKISQAKDDSQNAIDHKIESDTEETQDTSVDHNETGNTGESSVEENEKQQNASESKLELRNNSNTCNIENELEDSRKTTACTELRDKIACNGDASSSQIIHISDENEGKEMCVLRMTRARRSQVEQQQLITVEKALAILSQPTPSLVVDHERLKNLLKTVVKKSQNYNIFQLENLYAVISQCIYRHRKDHDKTSLIQKMEQEVENFSCSR
modifications: fetalbrain; ARAP11 fragment from amino acid residues 813- 1390
In the case of B1, the “co-activation of the AR signal activity (luciferase reporter activity)” value is reported as “strong co-activation of the AR signal activity”.
